Reference: FireProtDB (doi:10.1038/nsb0996-782)

Conditions: Escherichia coli (strain K12); pH 5.1; 25 °C; GdnHCl; NMR; Sodium acetate 100mM; whole UniProt chain shown

B1: Ribonuclease HI wild type, P0A7Y4 (protein)
chain: MLKQVEIFTDGSCLGNPGPGGYGAILRYRGREKTFSAGYTRTTNNRMELMAAIVALEALKEHCEVILSTDSQYVRQGITQWIHNWKKRGWKTADKKPVKNVDLWQRLDAALGQHQIKWEWVKGHAGHPENERCDELARAAAMNPTLEDTGYQVEV
Q: With B1 as the protein, how does the unfolding free energy read?
A: 10.5 kcal/mol
